From article PMC7948499, “The molecular basis of the nonprocessive elongation mechanism in levansucrases” (The Journal of Biological Chemistry, 2020)

Experiments:
[1] = biological target: T1, SacB (Bacillus subtilis levansucrase, LS) (Bacillus subtilis, UniProt P05655, D86A/E342A); test: X-ray crystal structure, […] Å, cocrystallization; assay type: binding; settings: catalytically inactive mutant; pH 6.0, 18 °C; active site (OB1, six fructose units modelled as levanhexaose); second site OB2 about 20 Å away (levanhexaose in chain A, levanbiose in chain B)
T1 construct: sacB gene of strain 168 in pET22b, expressed in E. coli BL21(DE3); residues 32-471 modelled in crystal
T1 sequence (P05655 30-473 D86A/E342A): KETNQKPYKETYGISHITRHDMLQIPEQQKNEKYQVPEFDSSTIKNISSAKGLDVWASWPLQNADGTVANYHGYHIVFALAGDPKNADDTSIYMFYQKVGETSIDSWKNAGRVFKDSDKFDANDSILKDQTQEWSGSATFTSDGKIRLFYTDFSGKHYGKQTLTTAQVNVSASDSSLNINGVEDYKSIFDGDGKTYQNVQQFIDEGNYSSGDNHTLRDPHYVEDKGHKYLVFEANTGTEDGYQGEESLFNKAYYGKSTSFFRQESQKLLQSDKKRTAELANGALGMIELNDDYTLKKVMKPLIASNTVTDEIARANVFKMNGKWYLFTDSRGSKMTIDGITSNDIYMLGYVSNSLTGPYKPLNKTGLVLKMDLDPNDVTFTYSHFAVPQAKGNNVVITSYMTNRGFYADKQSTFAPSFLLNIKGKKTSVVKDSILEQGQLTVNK

[2] = substrate: OC[C@H]1O[C@@](CO)(O[C@H]2O[C@H](CO)[C@@H](O)[C@H](O)[C@H]2O)[C@@H](O)[C@@H]1O; test: initial rates, reducing sugar release by dinitrosalicylic acid; assay type: biochemical, Bacillus subtilis; settings: 50 mM acetate pH 6.0, 0-300 mM sucrose, 1 mM CaCl2 in enzyme buffer
[3] = substrate: OC[C@H]1O[C@@](CO)(O[C@H]2O[C@H](CO)[C@@H](O)[C@H](O)[C@H]2O)[C@@H](O)[C@@H]1O; test: as above; assay type: biochemical, Bacillus subtilis; settings: 50 mM acetate pH 6.0, 0-300 mM sucrose, 1 mM CaCl2 in enzyme buffer; remark: listed apart in the source
Method: initial rates, reducing sugar release by dinitrosalicylic acid on SacB (Bacillus subtilis levansucrase, LS) | were expressed and purified, and their kinetic parameters were determined (Fig. 4B)

For `OC[C@H]1O[C@@](CO)(OC[C@H]2O[C@@](CO)(OC[C@H]3O[C@@](CO)(OC[C@H]4O[C@@](CO)(OC[C@H]5O[C@@](CO)(OC[C@H]6O[C@@](CO)(OC[C@H]7O[C@@](CO)(O[C@H]8O[C@H](CO)[C@@H](O)[C@H](O)[C@H]8O)[C@@H](O)[C@@H]7O)[C@@H](O)[C@@H]6O)[C@@H](O)[C@@H]5O)[C@@H](O)[C@@H]4O)[C@@H](O)[C@@H]3O)[C@@H](O)[C@@H]2O)[C@@H](O)[C@@H]1O` [6,6,6,6,6,6-kestooctaose], the “X-ray crystal structure, 2.05 Å, cocrystallization” value [1] was “inactive double mutant of SacB (D86A/E342A) cocrystallized in the presence of a levan-type FOS”.

B1: SacB (Bacillus subtilis levansucrase, LS) (Bacillus subtilis subsp. subtilis str. 168) (protein)
chain: KETNQKPYKETYGISHITRHDMLQIPEQQKNEKYQVPEFDSSTIKNISSAKGLDVWDSWPLQNADGTVANYHGYHIVFALAGDPKNADDTSIYMFYQKVGETSIDSWKNAGRVFKDSDKFDANDSILKDQTQEWSGSATFTSDGKIRLFYTDFSGKHYGKQTLTTAQVNVSASDSSLNINGVEDYKSIFDGDGKTYQNVQQFIDEGNYSSGDNHTLRDPHYVEDKGHKYLVFEANTGTEDGYQGEESLFNKAYYGKSTSFFRQESQKLLQSDKKRTAELANGALGMIELNDDYTLKKVMKPLIASNTVTDEIERANVFKMNGKWYLFTDSRGSKMTIDGITSNDIYMLGYVSNSLTGPYKPLNKTGLVLKMDLDPNDVTFTYSHFAVPQAKGNNVVITSYMTNRGFYADKQSTFAPSFLLNIKGKKTSVVKDSILEQGQLTVNK
notes: sacB gene of strain 168 in pET22b, expressed in E. coli BL21(DE3); residues 32-471 modelled in crystal
B1 gave a Km [2] of 9 mM and a kcat [2] of 236.7 s⁻¹.

B2: SacB (Bacillus subtilis levansucrase, LS) (Bacillus subtilis subsp. subtilis str. 168; F182A) (protein)
chain: KETNQKPYKETYGISHITRHDMLQIPEQQKNEKYQVPEFDSSTIKNISSAKGLDVWDSWPLQNADGTVANYHGYHIVFALAGDPKNADDTSIYMFYQKVGETSIDSWKNAGRVFKDSDKFDANDSILKDQTQEWSGSATFTSDGKIRLFYTDASGKHYGKQTLTTAQVNVSASDSSLNINGVEDYKSIFDGDGKTYQNVQQFIDEGNYSSGDNHTLRDPHYVEDKGHKYLVFEANTGTEDGYQGEESLFNKAYYGKSTSFFRQESQKLLQSDKKRTAELANGALGMIELNDDYTLKKVMKPLIASNTVTDEIERANVFKMNGKWYLFTDSRGSKMTIDGITSNDIYMLGYVSNSLTGPYKPLNKTGLVLKMDLDPNDVTFTYSHFAVPQAKGNNVVITSYMTNRGFYADKQSTFAPSFLLNIKGKKTSVVKDSILEQGQLTVNK
notes: as for B1
For B2, the Km [2] was 14.5 mM.

B3: SacB (Bacillus subtilis levansucrase, LS) (Bacillus subtilis subsp. subtilis str. 168; D117A) (protein)
chain: KETNQKPYKETYGISHITRHDMLQIPEQQKNEKYQVPEFDSSTIKNISSAKGLDVWDSWPLQNADGTVANYHGYHIVFALAGDPKNAADTSIYMFYQKVGETSIDSWKNAGRVFKDSDKFDANDSILKDQTQEWSGSATFTSDGKIRLFYTDFSGKHYGKQTLTTAQVNVSASDSSLNINGVEDYKSIFDGDGKTYQNVQQFIDEGNYSSGDNHTLRDPHYVEDKGHKYLVFEANTGTEDGYQGEESLFNKAYYGKSTSFFRQESQKLLQSDKKRTAELANGALGMIELNDDYTLKKVMKPLIASNTVTDEIERANVFKMNGKWYLFTDSRGSKMTIDGITSNDIYMLGYVSNSLTGPYKPLNKTGLVLKMDLDPNDVTFTYSHFAVPQAKGNNVVITSYMTNRGFYADKQSTFAPSFLLNIKGKKTSVVKDSILEQGQLTVNK
notes: as for B1
In the case of B3, the Km [3] is reported as 13.2 (1.7) mM and the kcat [3] is reported as 171.2 (5.7) s^-1.

B4: SacB (Bacillus subtilis levansucrase, LS) (Bacillus subtilis subsp. subtilis str. 168; F182W) (protein)
chain: KETNQKPYKETYGISHITRHDMLQIPEQQKNEKYQVPEFDSSTIKNISSAKGLDVWDSWPLQNADGTVANYHGYHIVFALAGDPKNADDTSIYMFYQKVGETSIDSWKNAGRVFKDSDKFDANDSILKDQTQEWSGSATFTSDGKIRLFYTDWSGKHYGKQTLTTAQVNVSASDSSLNINGVEDYKSIFDGDGKTYQNVQQFIDEGNYSSGDNHTLRDPHYVEDKGHKYLVFEANTGTEDGYQGEESLFNKAYYGKSTSFFRQESQKLLQSDKKRTAELANGALGMIELNDDYTLKKVMKPLIASNTVTDEIERANVFKMNGKWYLFTDSRGSKMTIDGITSNDIYMLGYVSNSLTGPYKPLNKTGLVLKMDLDPNDVTFTYSHFAVPQAKGNNVVITSYMTNRGFYADKQSTFAPSFLLNIKGKKTSVVKDSILEQGQLTVNK
notes: as for B1
With B4 the Km [3] was 10.5 (1.3) mM and the kcat [3] was 129.4 (3.6) s^-1.

B5: SacB (Bacillus subtilis levansucrase, LS) (Bacillus subtilis subsp. subtilis str. 168; N242A) (protein)
chain: KETNQKPYKETYGISHITRHDMLQIPEQQKNEKYQVPEFDSSTIKNISSAKGLDVWDSWPLQNADGTVANYHGYHIVFALAGDPKNADDTSIYMFYQKVGETSIDSWKNAGRVFKDSDKFDANDSILKDQTQEWSGSATFTSDGKIRLFYTDFSGKHYGKQTLTTAQVNVSASDSSLNINGVEDYKSIFDGDGKTYQNVQQFIDEGNYSSGDAHTLRDPHYVEDKGHKYLVFEANTGTEDGYQGEESLFNKAYYGKSTSFFRQESQKLLQSDKKRTAELANGALGMIELNDDYTLKKVMKPLIASNTVTDEIERANVFKMNGKWYLFTDSRGSKMTIDGITSNDIYMLGYVSNSLTGPYKPLNKTGLVLKMDLDPNDVTFTYSHFAVPQAKGNNVVITSYMTNRGFYADKQSTFAPSFLLNIKGKKTSVVKDSILEQGQLTVNK
notes: as for B1
B5 gave a Km [2] of 19.9 mM.

B6: SacB (Bacillus subtilis levansucrase, LS) (Bacillus subtilis subsp. subtilis str. 168; F182Y) (protein)
chain: KETNQKPYKETYGISHITRHDMLQIPEQQKNEKYQVPEFDSSTIKNISSAKGLDVWDSWPLQNADGTVANYHGYHIVFALAGDPKNADDTSIYMFYQKVGETSIDSWKNAGRVFKDSDKFDANDSILKDQTQEWSGSATFTSDGKIRLFYTDYSGKHYGKQTLTTAQVNVSASDSSLNINGVEDYKSIFDGDGKTYQNVQQFIDEGNYSSGDNHTLRDPHYVEDKGHKYLVFEANTGTEDGYQGEESLFNKAYYGKSTSFFRQESQKLLQSDKKRTAELANGALGMIELNDDYTLKKVMKPLIASNTVTDEIERANVFKMNGKWYLFTDSRGSKMTIDGITSNDIYMLGYVSNSLTGPYKPLNKTGLVLKMDLDPNDVTFTYSHFAVPQAKGNNVVITSYMTNRGFYADKQSTFAPSFLLNIKGKKTSVVKDSILEQGQLTVNK
notes: as for B1
In the case of B6, the Km [3] is reported as 10.3 (0.7) mM and the kcat [3] is reported as 162.2 (2.6) s^-1.

B7: SacB (Bacillus subtilis levansucrase, LS) (Bacillus subtilis subsp. subtilis str. 168; Y237A) (protein)
chain: KETNQKPYKETYGISHITRHDMLQIPEQQKNEKYQVPEFDSSTIKNISSAKGLDVWDSWPLQNADGTVANYHGYHIVFALAGDPKNADDTSIYMFYQKVGETSIDSWKNAGRVFKDSDKFDANDSILKDQTQEWSGSATFTSDGKIRLFYTDFSGKHYGKQTLTTAQVNVSASDSSLNINGVEDYKSIFDGDGKTYQNVQQFIDEGNASSGDNHTLRDPHYVEDKGHKYLVFEANTGTEDGYQGEESLFNKAYYGKSTSFFRQESQKLLQSDKKRTAELANGALGMIELNDDYTLKKVMKPLIASNTVTDEIERANVFKMNGKWYLFTDSRGSKMTIDGITSNDIYMLGYVSNSLTGPYKPLNKTGLVLKMDLDPNDVTFTYSHFAVPQAKGNNVVITSYMTNRGFYADKQSTFAPSFLLNIKGKKTSVVKDSILEQGQLTVNK
notes: as for B1
B7 was tested, and the Km [2] was 10.6 (1.7) mM and the kcat [2] was 256.3 (9.3) s^-1.

B8: SacB (Bacillus subtilis levansucrase, LS) (Bacillus subtilis subsp. subtilis str. 168; K363A) (protein)
chain: KETNQKPYKETYGISHITRHDMLQIPEQQKNEKYQVPEFDSSTIKNISSAKGLDVWDSWPLQNADGTVANYHGYHIVFALAGDPKNADDTSIYMFYQKVGETSIDSWKNAGRVFKDSDKFDANDSILKDQTQEWSGSATFTSDGKIRLFYTDFSGKHYGKQTLTTAQVNVSASDSSLNINGVEDYKSIFDGDGKTYQNVQQFIDEGNYSSGDNHTLRDPHYVEDKGHKYLVFEANTGTEDGYQGEESLFNKAYYGKSTSFFRQESQKLLQSDKKRTAELANGALGMIELNDDYTLKKVMKPLIASNTVTDEIERANVFKMNGKWYLFTDSRGSAMTIDGITSNDIYMLGYVSNSLTGPYKPLNKTGLVLKMDLDPNDVTFTYSHFAVPQAKGNNVVITSYMTNRGFYADKQSTFAPSFLLNIKGKKTSVVKDSILEQGQLTVNK
notes: as for B1
With B8 the Km [3] was 10.5 (2.2) mM and the kcat [3] was 95.4 (2.2) s^-1.

B9: SacB (Bacillus subtilis levansucrase, LS) (Bacillus subtilis subsp. subtilis str. 168; Y187A) (protein)
chain: KETNQKPYKETYGISHITRHDMLQIPEQQKNEKYQVPEFDSSTIKNISSAKGLDVWDSWPLQNADGTVANYHGYHIVFALAGDPKNADDTSIYMFYQKVGETSIDSWKNAGRVFKDSDKFDANDSILKDQTQEWSGSATFTSDGKIRLFYTDFSGKHAGKQTLTTAQVNVSASDSSLNINGVEDYKSIFDGDGKTYQNVQQFIDEGNYSSGDNHTLRDPHYVEDKGHKYLVFEANTGTEDGYQGEESLFNKAYYGKSTSFFRQESQKLLQSDKKRTAELANGALGMIELNDDYTLKKVMKPLIASNTVTDEIERANVFKMNGKWYLFTDSRGSKMTIDGITSNDIYMLGYVSNSLTGPYKPLNKTGLVLKMDLDPNDVTFTYSHFAVPQAKGNNVVITSYMTNRGFYADKQSTFAPSFLLNIKGKKTSVVKDSILEQGQLTVNK
notes: as for B1
With B9 the Km [3] was 8.4 (0.9) mM and the kcat [3] was 199.2 (4.4) s^-1.
